The experiment concerns the target antigen derived from p95HER2 (protein sequence …). The experiment in a line: indirect ELISA, antigen coated at 2.5 ug/mL, antibody in 3-fold dilutions from 3.0 ug/mL, absorbance at 450 nm. The method, then:
Antibody binding was determined by indirect ELISA. A microtitre plate was coated with 50 μL antigen (protein sequence: […]) (SEQ ID NO: 36) at 2.5 μg/mL for 1 hour with shaking at 300 rpm then blocked with 200 μL 1% casein in PBS for 16 hours at 4° C. The plate was washed twice with PBS containing 0.05% Tween-20. In a separate offline microplate, antibody test samples were prepared in duplicate in a 3-fold serial dilution starting at 3.0 ug/mL. 50 μL of each test sample was transferred to the assay plate and incubated for 1 hour with shaking at 300 rpm. The plate was washed four times with PBS containing 0.05% Tween-20. 50 μL of horse radish peroxidase (HRP) labelled anti-human IgG antibody (catalogue number A8792, Sigma) at a dilution of 1:4000 was added to each well and incubated for 1 hour with shaking at 300 rpm. The plate was washed four times with PBS containing 0.05% Tween-20 and twice with water. 100 μL Tetramethylbenzidine (TMB) substrate (catalogue number 10076433, Fisher) was added and incubated for 10 minutes. The reaction was stopped by addition of 50 μL IM HCl and absorbance was measured at 450 nm using a Byonoy plate reader.
For orientation: In an ELISA, binding on a coated surface is turned into a signal by an enzyme label.

Residue numbers refer to the chain shown, from its start. In names and notes the source's numbering stands.

B1: parental Oslo-2 monoclonal antibody (antibody, V domains shown)
VH: EVQILETGGGLVKPGGSLRLSCATSGFNFNDYFMNWVRQAPGKGLEWIAQIRNKNYNYATYFAESLEGRFTISRDDSKSSVYLQVNSLRAEDTALYYCTELRYDYWGQGVMVTVSS
VL: DIVMTQSPFSLAVSEGEMVTINCKSSQSLLSSGNQKNNLAWYQQKPGQSPKLLIYYASTRQSGVPDRFIGSGSGTDFTLTISDVQAEDLADYYCLQHYSSPYTFGAGTKLELK
notes: also called Oslo-2 antibody; Oslo-2 parental antibody
As for B1, the binding result was “binds”.

B2: Oslo-2 mAb variant Mutant 4 (L:S31W/L:H107W) (antibody, V domains shown)
VH: B1 VH
VL: B1 VL with S31W, H97W, L112I
notes: Only variable domains are tied to the molecule; also called Variant 4; variant 4
B2: the binding result was “binds”.

B3: Oslo-2 mAb variant Mutant 5 (L:S31M) (antibody, V domains shown)
VH: B1 VH
VL: B1 VL with S31M, L112I
notes: Only variable domains are tied to the molecule; also called Variant 5; variant 5
Take B3: the binding result is “binds”.

These data come from patent US20260263520A1 (OSLO UNIVERSITETSSYKEHUS HF, published 2026).
